In US20240317847A1 (Bayer, published 2024):

Assays:
human IL-11 = target: T1, human IL-11 (human, UniProt P20809 22-199); assay: SPR, antibody captured, IL-11 as analyte
T1 construct: bought from Invigate; also called hIL-11; hIL11
T1 sequence: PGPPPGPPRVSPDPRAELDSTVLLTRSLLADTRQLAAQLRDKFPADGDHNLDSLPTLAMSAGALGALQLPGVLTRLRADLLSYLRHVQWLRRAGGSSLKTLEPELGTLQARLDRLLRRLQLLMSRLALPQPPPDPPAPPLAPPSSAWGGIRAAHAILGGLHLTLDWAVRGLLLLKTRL
Experimental: (§1) Antibodies were captured via anti-mouse Fc IgGs (“Mouse antibody capture kit, Order No. BR100383, Cytiva) covalently amine coupled to a Series S CM5 sensor chip (Cytiva). The amine coupling was carried out according to the manufacturer's instructions using 1-ethyl-3-(3-dimethylaminopropyl) carbodiimide hydrochloride (EDC), N-hydroxysuccinimide (NHS) and ethanolamine HCl, pH 8.5 (“Amine Coupling Kit” BR-1000-50, Cytiva.). Human IL-11 (Invigate, e.g., lot #C121021-19), and murine IL-11 (Invigate, e.g., lot #C210819-09) were used as analytes. […] Based on that experiment an IL-11 concentration range was chosen to optimally determine kinetics and affinity of anti-IL-11 antibodies in multicycle kinetics mode. The sensor surface was regenerated with glycine pH 1.7 after each antigen injection. Obtained sensorgrams were double referenced (subtraction of reference flow cell signal and buffer injection) and were fitted to a 1:1 Langmuir binding model to derive kinetic data using the Biacore T200 Evaluation software or the Biacore Insight software.
(§2) 42 hits from the IL-11 and […] screening analysis were selected, expressed by transient transfection of mammalian cells and purified as described in Example 15. Antibodies were then tested for human IL-11 and murine IL-11 binding by SPR as described in Example 16.

murine IL-11 = target: T2, murine IL-11 (mouse, UniProt P47873 22-199); assay: SPR, antibody captured, IL-11 as analyte
T2 construct: bought from Invigate; also called mIL-11; mIL11
T2 sequence: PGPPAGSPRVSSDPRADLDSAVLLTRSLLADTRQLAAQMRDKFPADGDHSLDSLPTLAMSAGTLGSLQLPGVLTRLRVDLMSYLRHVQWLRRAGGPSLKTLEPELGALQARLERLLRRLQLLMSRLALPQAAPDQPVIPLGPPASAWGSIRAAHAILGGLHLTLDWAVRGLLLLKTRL
Experimental: as §1, §2

Row | Binder | Kd (human IL-11) [nM] | Kd (murine IL-11) [nM]
1 | TPP-26297 (antibody, V domains shown, constant regions not restated) VH: EVQLLESGGGLVQPGGSLRLSCAASGFTFSSYGMHWVRQAPGKGLEWVSVISYDGSYKYYADSVKGRFTISRDNSKNTLYLQMNSLRAEDTAVYYCAAGVPDYWGQGTLVTVSS VL: QSVLTQPPSASGTPGQRVTISCTGSSSNIGAGYDVHWYQQLPGTAPKLLIYSNNERPSGVPDRFSGSKSGTSASLAISGLRSEDEADYYCAAWQDSLNGPVFGGGTKLTVL | 13 | 0.89
2 | TPP-26299 (antibody, V domains shown, constant regions not restated) VH: EVQLLESGGGLVQPGGSLRLSCAASGFTFSSYGMHWVRQAPGKGLEWVSVISYDGSYKYYADSVKGRFTISRDNSKNTLYLQMNSLRAEDTAVYYCAAGVPDYWGQGTLVTVSS VL: QSVLTQPPSASGTPGQRVTISCTGSSSNIGAGYDVHWYQQLPGTAPKLLIYSNNERPSGVPDRFSGSKSGTSASLAISGLRSEDEADYYCAAWDDSLYGPVFGGGTKLTVL | 11 | 0.63
3 | TPP-26300 (antibody, V domains shown, constant regions not restated) VH: EVQLLESGGGLVQPGGSLRLSCAASGFTFSSYGMHWVRQAPGKGLEWVSVISYDGSYKYYADSVKGRFTISRDNSKNTLYLQMNSLRAEDTAVYYCAAGVPDYWGQGTLVTVSS VL: QSVLTQPPSASGTPGQRVTISCTGSSSNIGAGYDVHWYQQLPGTAPKLLIYSNNERPSGVPDRFSGSKSGTSASLAISGLRSEDEADYYCAAWDSSLNGPVFGGGTKLTVL | 9.2 | 0.45
4 | TPP-26303 (antibody, V domains shown, constant regions not restated) VH: EVQLLESGGGLVQPGGSLRLSCAASGFTFSSYGMHWVRQAPGKGLEWVSVISYDGSYKYYADSVKGRFTISRDNSKNTLYLQMNSLRAEDTAVYYCAAGVPDYWGQGTLVTVSS VL: QSVLTQPPSASGTPGQRVTISCTGSSSNIGAGYDVHWYQQLPGTAPKLLIYSNNERPEGVPDRFSGSKSGTSASLAISGLRSEDEADYYCAAWDDSLNGPVFGGGTKLTVL | 13 | 0.65
5 | TPP-26304 (antibody, V domains shown, constant regions not restated) VH: EVQLLESGGGLVQPGGSLRLSCAASGFTFSSYGMHWVRQAPGKGLEWVSVISYDGSYKYYADSVKGRFTISRDNSKNTLYLQMNSLRAEDTAVYYCAAGVPDYWGQGTLVTVSS VL: QSVLTQPPSASGTPGQRVTISCTGSSSNIWAGYDVHWYQQLPGTAPKLLIYSNNERPSGVPDRFSGSKSGTSASLAISGLRSEDEADYYCAAWDDSLNGPVFGGGTKLTVL | 12 | 0.64
6 | TPP-26306 (antibody, V domains shown, constant regions not restated) VH: EVQLLESGGGLVQPGGSLRLSCAASGFTFSSYGMHWVRQAPGKGLEWVSVISYDGSYKYYADSVKGRFTISRDNSKNTLYLQMNSLRAEDTAVYYCAAGVPDYWGQGTLVTVSS VL: QSVLTQPPSASGTPGQRVTISCTGSSSNIGAGYDVHWYQQLPGTAPKLLIYSNNERPSGVPDRFSGSKSGTSASLAISGLRSEDEADYYCAAWDQSLNGPVFGGGTKLTVL | 12 | 0.65
7 | TPP-26308 (antibody, V domains shown, constant regions not restated) VH: EVQLLESGGGLVQPGGSLRLSCAASGFTFSSYGMHWVRQAPGKGLEWVSVISYDGSYKYYADSVKGRFTISRDNSKNTLYLQMNSLRAEDTAVYYCAAGVPDYWGQGTLVTVSS VL: QSVLTQPPSASGTPGQRVTISCTGSSSNIGAGYDVHWYQQLPGTAPKLLIYSNNERPSGVPDRFSGSKSGTSASLAISGLRSEDEADYYCAAWDVSLNGPVFGGGTKLTVL | 17 | 1.3
8 | TPP-26310 (antibody, V domains shown, constant regions not restated) VH: EVQLLESGGGLVQPGGSLRLSCAASGFTFSSYGMHWVRQAPGKGLEWVSVISYDGSYKYYADSVKGRFTISRDNSKNTLYLQMNSLRAEDTAVYYCAAGVPDYWGQGTLVTVSS VL: QSVLTQPPSASGTPGQRVTISCTGSSSNIGAGYDVHWYQQLPGTAPKLLIYSNNERPWGVPDRFSGSKSGTSASLAISGLRSEDEADYYCAAWDDSLNGPVFGGGTKLTVL | 13 | 0.66
9 | TPP-26313 (antibody, V domains shown, constant regions not restated) VH: EVQLLESGGGLVQPGGSLRLSCAASGFTFSSYGMHWVRQAPGKGLEWVSVISYDGSYKYYADSVKGRFTISRDNSKNTLYLQMNSLRAEDTAVYYCAAGVPDYWGQGTLVTVSS VL: QSVLTQPPSASGTPGQRVTISCTGSSSNIGAYYDVHWYQQLPGTAPKLLIYSNNERPSGVPDRFSGSKSGTSASLAISGLRSEDEADYYCAAWDDSLNGPVFGGGTKLTVL | 9.1 | 0.46
10 | TPP-26314 (antibody, V domains shown, constant regions not restated) VH: EVQLLESGGGLVQPGGSLRLSCAASGFTFSSYGMHWVRQAPGKGLEWVSVISYDGSYKYYADSVKGRFTISRDNSKNTLYLQMNSLRAEDTAVYYCAAGVPDYWGQGTLVTVSS VL: QSVLTQPPSASGTPGQRVTISCTGSSSNIGAGYDVHWYQQLPGTAPKLLIYSNNERPSGVPDRFSGSKSGTSASLAISGLRSEDEADYYCAAWDWSLNGPVFGGGTKLTVL | 8.3 | 0.56

Next, values leading:

Row | Kd (human IL-11) [nM] | Kd (murine IL-11) [nM] | Binder
11 | 13 | 0.73 | TPP-26298 (antibody, V domains shown, constant regions not restated) VH: EVQLLESGGGLVQPGGSLRLSCAASGFTFSSYGMHWVRQAPGKGLEWVSVISYDGSYKYYADSVKGRFTISRDNSKNTLYLQMNSLRAEDTAVYYCAAGVPDYWGQGTLVTVSS VL: QSVLTQPPSASGTPGQRVTISCLGSSSNIGAGYDVHWYQQLPGTAPKLLIYSNNERPSGVPDRFSGSKSGTSASLAISGLRSEDEADYYCAAWDDSLNGPVFGGGTKLTVL
12 | 13 | 0.7 | TPP-26302 (antibody, V domains shown, constant regions not restated) VH: EVQLLESGGGLVQPGGSLRLSCAASGFTFSSYGMHWVRQAPGKGLEWVSVISYDGSYKYYADSVKGRFTISRDNSKNTLYLQMNSLRAEDTAVYYCAAGVPDYWGQGTLVTVSS VL: QSVLTQPPSASGTPGQRVTISCTGSSSNIGAGYDVHWYQQLPGTAPKLLIYSNNERPSGVPDRFSGSKSGTSASLAISGLRSEDEADYYCSAWDDSLNGPVFGGGTKLTVL
13 | 16 | 1.6 | TPP-26307 (antibody, V domains shown, constant regions not restated) VH: EVQLLESGGGLVQPGGSLRLSCAASGFTFSSYGMHWVRQAPGKGLEWVSVISYDGSYKYYADSVKGRFTISRDNSKNTLYLQMNSLRAEDTAVYYCAAGVPDYWGQGTLVTVSS VL: QSVLTQPPSASGTPGQRVTISCTGSSSNIGAGYDVHWYQQLPGTAPKLLIYSNNERPSGVPDRFSGSKSGTSASLAISGLRSEDEADYYCAAWDISLNGPVFGGGTKLTVL
14 | 8.2 | 0.8 | TPP-26309 (antibody, V domains shown, constant regions not restated) VH: EVQLLESGGGLVQPGGSLRLSCAASGFTFSSYGMHWVRQAPGKGLEWVSVISYDGSYKYYADSVKGRFTISRDNSKNTLYLQMNSLRAEDTAVYYCAAGVPDYWGQGTLVTVSS VL: QSVLTQPPSASGTPGQRVTISCTGSSSNIGAGYDVHWYQQLPGTAPKLLIYSNNERPSGVPDRFSGSKSGTSASLAISGLRSEDEADYYCAAWDFSLNGPVFGGGTKLTVL
15 | 10 | 0.8 | TPP-26312 (antibody, V domains shown, constant regions not restated) VH: EVQLLESGGGLVQPGGSLRLSCAASGFTFSSYGMHWVRQAPGKGLEWVSVISYDGSYKYYADSVKGRFTISRDNSKNTLYLQMNSLRAEDTAVYYCAAGVPDYWGQGTLVTVSS VL: QSVLTQPPSASGTPGQRVTISCTGSSSNIGAGLDVHWYQQLPGTAPKLLIYSNNERPSGVPDRFSGSKSGTSASLAISGLRSEDEADYYCAAWDDSLNGPVFGGGTKLTVL
